Consider 2 substances from patent US10828372B2, “Compositions and methods for the inhibition of fibrosis” (WISCONSIN ALUMNI RESEARCH FOUNDATION, priority 2017, dated 2020).

pIC50: −log10 of the molar value. Several values for one entry are separate records, joined by “and”; a condition that tells them apart may be missing. Identical values can stand only once. Where no end group is shown, it is not given here.

Series [1] relates to Alexa 488-labeled human plasma FN. Kind of series: Matrix Assembly in vitro Assay (MAA), A488-FN deposition by AH1F fibroblasts. The series is classed as cell-based. To be noted: 24 hours, viability-normalized fluorescence, n=4, FUD run alongside each conjugate. As to the method:
Matrix Assembly Assay: The matrix assembly assay was conducted in the 96-well plate format as described in the art. AH1F human skin fibroblast cells resuspended in 2% fetal bovine serum were added to each well for a density of 60,000 cells per well. A 1 hr incubation period at 37° C. followed to allow cell adhesion and spreading. FUD, PEG-FUD, or PEG-mFUD were added to each well following incubation. Immediately, Alexa Fluor® 488 fluorescence labeled human plasma fibronectin (A488-FN) was then added to each well for a final FN concentration of 11 μg/mL. The cells were then incubated for 24 hours at 37° C. Non-assembled FN was removed from each well by washing with Hank's Balanced Salt Solution (HBSS) containing Ca^2+ and Mg^2+. The well volume was restored to 60 μL with HBSS and a fluorescence reading from the bottom of each well was taken using a Synergy™ H1 (Biotek) plate reader (excitation: 485 nm, Emission: 538 nm). Cell viability was quantified using CellTiter-Glo® cell viability assay using the manufacturer's protocol. A 30 μL aliquot of HBSS was removed from each well and was replaced with 30 μL of the luminescence reagent prepared shortly beforehand. Luminescence was quantified using the same plate reader. The average of fluorescence values of a no A488FN or inhibitor control group were routinely subtracted from the readings of each well and were normalized using each well's corresponding luminescence value. Lastly, the cell viability normalized fluorescence values were expressed as a percentage of the 0 nM drug control group. The final results were processed using Graphpad Prism 7.0 software. IC50 values were extracted using a four-parameter dose-response curve function. Student's t test was used to determine significance of differences among peptides at a given drug concentration.
The PEG-FUD FN fibrillogenesis inhibitory performance was evaluated in vitro using the matrix assembly assay (MAA). The methodology of this assay is depicted in FIG. 8. The MAA quantifies ECM deposition of exogenous AlexaFluor® 488-labeled FN (A488FN) by a confluent monolayer of fibroblasts after an incubation period by measuring fluorescence of deposited FN. In this study, the performance of PEG-FUD peptides was compared to that of FUD and the PEG-mFUD control peptide using the AH1F human foreskin fibroblast cell line.

Series [2] has as its target T1, 70K N-terminal domain of FN (Homo sapiens, UniProt P02751).
T1 construct: specifically to the 70K N-terminal domain of FN involved in fibrillogenesis
The note with it: background statement; cited from earlier work.

For series [3] the following is noted: UUO kidney ECM fraction, s.c. approximately 12.5 mg/kg daily; extrapolated. The protocol:
Unilateral Ureteral Obstruction model. Male C57BL/6 mice were purchased from Envigo (Madison, Wis.) and housed in the Wisconsin Institutes for Medical Research animal facilities at the University of Wisconsin-Madison with ad-libitum access to food and water. Animals were maintained in humidity and temperature-controlled rooms under 12 h light/dark cycles. All work was conducted under protocol M5421, reviewed and approved by the University of Wisconsin-Madison Institutional Animal Care and Use Committee. All efforts were made to minimize suffering. The Unilateral Ureteral Obstruction (UUO) model is a rodent surgical model representing a human equivalent of […]. Obstruction results in marked dilatation of the ureter together with reduced renal blood flow and glomerular filtration. […]
Tissue extraction and immunoblotting: Kidney tissues were fractionated as described in the art. […] Relative quantitation of specific blotted protein was performed by assessing band intensities using Image J and normalizing to bands obtained with rabbit anti-Histone 3 rabbit IgG (CellSignalTechnology, Danves, Mass., USA) or goat anti-GAPDH-HRP conjugated IgG (Genscript, Piscataway, N.J., USA), which were used as loading controls for ECM or lysate fractions, respectively.

Sequence of Alexa 488-labeled human plasma FN (P02751 32-608 limits assumed): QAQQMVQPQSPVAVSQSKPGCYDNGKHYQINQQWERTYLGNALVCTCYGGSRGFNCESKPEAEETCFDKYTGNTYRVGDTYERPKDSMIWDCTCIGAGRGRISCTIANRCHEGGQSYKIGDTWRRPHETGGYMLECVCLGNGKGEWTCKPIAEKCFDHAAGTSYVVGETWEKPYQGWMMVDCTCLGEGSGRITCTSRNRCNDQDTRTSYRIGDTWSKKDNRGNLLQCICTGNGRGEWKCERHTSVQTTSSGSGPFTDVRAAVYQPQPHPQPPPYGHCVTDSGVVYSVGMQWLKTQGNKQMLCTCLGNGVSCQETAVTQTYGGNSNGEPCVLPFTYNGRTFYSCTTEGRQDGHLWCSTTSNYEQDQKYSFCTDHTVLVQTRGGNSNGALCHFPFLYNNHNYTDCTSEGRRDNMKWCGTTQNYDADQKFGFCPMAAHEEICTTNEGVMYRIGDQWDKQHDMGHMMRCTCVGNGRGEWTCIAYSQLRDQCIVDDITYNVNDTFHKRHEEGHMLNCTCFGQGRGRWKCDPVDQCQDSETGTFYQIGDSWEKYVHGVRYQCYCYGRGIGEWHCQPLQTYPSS
T1 sequence (P02751 32-609 limits assumed): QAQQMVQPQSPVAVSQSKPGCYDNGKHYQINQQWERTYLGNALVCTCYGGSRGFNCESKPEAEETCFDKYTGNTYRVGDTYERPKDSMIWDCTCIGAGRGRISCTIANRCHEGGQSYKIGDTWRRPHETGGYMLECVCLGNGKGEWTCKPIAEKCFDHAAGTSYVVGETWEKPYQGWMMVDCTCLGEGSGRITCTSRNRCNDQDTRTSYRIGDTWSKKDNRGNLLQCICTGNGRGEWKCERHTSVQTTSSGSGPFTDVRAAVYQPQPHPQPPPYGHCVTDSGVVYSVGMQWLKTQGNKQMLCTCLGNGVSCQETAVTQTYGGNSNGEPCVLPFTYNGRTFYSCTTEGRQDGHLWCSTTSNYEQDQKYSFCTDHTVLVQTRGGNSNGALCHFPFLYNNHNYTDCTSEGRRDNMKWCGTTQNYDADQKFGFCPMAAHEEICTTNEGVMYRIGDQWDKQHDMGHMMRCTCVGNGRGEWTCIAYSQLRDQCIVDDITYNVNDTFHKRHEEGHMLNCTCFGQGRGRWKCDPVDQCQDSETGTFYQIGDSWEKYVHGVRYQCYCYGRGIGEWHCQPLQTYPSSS

Take “FUD: 49 amino acid FUD peptide, SEQ ID NO: 1, recombinantly expressed, His-tag removed; inhibitor of fibronectin fibrillogenesis (KDQSPLAGESGETEYITEVYGNQQNPVDIDKKLPNETGFSGNMVETEDT; human) [reference compound]”: the pIC50 in series [1] was 7.89 and 7.59 and 7.72. Also, the binding affinity result in series [2] is reported as “nanomolar affinity”.
As to “PEG-FUD: PEGylated FUD prepared as in Example 1, PEG size not stated; approximately 27 kDa by mass spectrometry, likely the 20 kDa conjugate (KDQSPLAGESGETEYITEVYGNQQNPVDIDKKLPNETGFSGNMVETEDT; not fully specified (N-terminus); also: PEG size not given here)”, in series [3], the “PEG-FUD level in kidney” value was roughly 50 ng per mg.
